Reference: patent publication US20160052997A1 (CELLTRION, published 2016)

Molecular target: HA of A/CA/04/09 (H1N1) virus (Influenza A virus A/CA/04/09 (H1N1))
Assay: cell-based or functional assay

B1: CT120 (antibody, V domains shown)
VH: QVQLVQSGAEVKMPGSSVKVSCKTSGVFFSSHAISWVRQAPGQGLEWMGGISPMFGTTHYAQKFQGRVTITADQSTTTAYMELTSLTSEDTAVYYCARDGAGSYYPLNWFDPWGQGTLVTVSS
VL: EIVLTQSPATLSLSPGERATLSCRASENIWNNLAWYQQKPGQAPRLLISGASTGATGVPSRFRGSGSRTEFTLTISSLQSEDFAIYFCQQYNSWPRTFGPGTKVEIKR
EC50, microneutralization test: 0.21 µg/mL
